Assay results reported in patent US20260258115A1 (MAPP BIOPHARMACEUTICAL, published 2026).

Legend:
Assay in all cases: BLI, IgG
[1] = molecular target: RSV prefusion F (preF), subtype A (respiratory syncytial virus, subtype A, UniProt P03420 26-513)
[2] = molecular target: T1, RSV postfusion F (postF), subtype B (respiratory syncytial virus, subtype B)
T1 construct: also called F ΔFP; Postfusion subtype B

[3] = molecular target: RSV prefusion F (preF), subtype B (respiratory syncytial virus, subtype B)
[4] = molecular target: T2, RSV postfusion F (postF), subtype A (respiratory syncytial virus, subtype A, UniProt P03420 26-513)
T2 construct: also called F ΔFP; Postfusion subtype A

Binder | Kd [1] [nM] | Kd [2] [nM] | Kd [3] [nM] | Kd [4] [nM] | binding result [1]
ADI-20989 (antibody, V domains shown) VH: EVQLLESGPGLVKPSGTLSLTCAVSGGSIINSNWWSWVRQSPGKGLEWIGDIYHSGSTTYNPSLKSRVTISVDRSKNQYSLRLTSVTAADTAVYYCAKIGPDNRSGPDYYYFMDVWGKGTTVTVSS VL: EIVLTQSPSSLPASVGDRVTISCRASQSISNYVYWYQQKPGKAPKLLIYAASSLQSGVPSRFSGSGSGTDFTLSISSLQFEDFATYFCQQSYSTPPTFGQGTKLEIK | 4.8 | 0.809 | 6.29 | 0.428 | 
ADI-14607 (antibody, V domains shown) VH: EVQLLESGGGVVQSGRSLRLSCAASGFTFNNYAMHWVRQAPGKGLEWVAVISFDGGNKFYGDSVQGRFTISRDNSKNTLYLQTNSLRPEDTAVYYCARDRWEIQIGLDIWGQGTTVTVSS VL: SYVLTQPPSVSVSPGQTARITCSGDALARQNAYWYQQKPGQAPVLVMYRDTGRPSGIPERFSGSSSGTTVTLTISEVQAEDEADYYCQSADSSGAYVFGTGTKVTVL | 1.7 | 0.227 | 0.64 | 0.381 | 
ADI-14590 (antibody, V domains shown) VH: EVQLVESGAEVKKPGESLKISCKGSGYSFATYWIGWVRQMPGKGLEWMGIIYPGDSDTRYSPSFQGQVTISADKSISTAYLQWSSLKASDTAIYYCARAKLPVAGLYYFDYWGQGTLVTVSS VL: DIQLTQSPSSLSASVGDRVTITCRASQGISSTLAWYQQKPGKAPKLLIYDASSLESGVPSRFSGSGSGTDFTLTISSLHPEDFATYYCQQFNTYPTFGGGTKVEIK | 13.2 | 0.967 | 5.99 | 2.68 | 
ADI-20990 (antibody, V domains shown) VH: EVQLVESGGGVVQPGRSLRLSCSASGFPFHSYAMHWVRQAPGKGLEWVAGIWYEGSSESYADSVKGRLTISRDNSRNTLYLQMNSLRVEDTAVYYCARRGSFSGFDSWGQGSLVTVSS VL: DIVMTQSPLSLPVTPGEPASISCRSSQSLLHSNGYNYLDWYLQKPGQSPQLLISLGSNRASGVPDRFSGSVAGTDFTLKISRVEAEDVGVYYCMQSSQTPYTFGQGTKVDIK | 1.58 | 0.312 | 0.904 | 0.178 | 
ADI-20968 (antibody, V domains shown) VH: QVQLQQWGAGLLKPSETLSLTCAMYGGSFSDDYWSWIRQPPGKGLEWIGEVNHGGSTNYNTSLKSRVTISADTSKKQFSLKLRSVTAADTAVYFCARGWRYCNATTCYSKAFDIWGQGTMVTVSS VL: DIQMTQSPSSLSASVGDRVTITCQASQDIDIYLIWYQQKPGRAPKLLIYDASNLKTGVPSRFSGSGSGTEFTFTINNLQPEDFATYYCQQFHDLPLTFGGGTKLEIK | 0.135 | 0.15 | 0.127 | 0.157 | 
ADI-20976 (antibody, V domains shown) VH: QVQLVESGGDLVQKGGSLRLSCAASGFTFDNYAMTWIRQAPGQGLEWVSTVSGFVLGTGYTTYYADSVKGRFTISRDSSKNTVYLQLNSLRAEDTAVYYCAKCAATRNECLWDYLQQWGQGTTVTVSS VL: EIVMTQSPSSLSASVGDRVTITCRASQSVSIYLNWYQQKGGKAPKLLIYGASALQRGVPSRFSGSGSGTDFTLTITSLQPEDFATYFCHQSYSAPQTFGQGTKVDIK | 1.86 | 0.304 | 0.955 | 0.263 | 
ADI-20993 (antibody, V domains shown) VH: EVQLVESGGGVVQPGRSLRLTCAASGFPFSSYAMHWVRQAPGKGLEWVAVTWYDGPNRDYADSVKGRFTVSRDNSKNTLYLQMTSLRADDTAVYYCARRGSWGSFDYWGQGTLVTVSS VL: DIVMTQSPLSLSATPGEPASISCRPSQSLLHSNGYNYLEWYLQKPGQSPQLLIYLGSNRASGVPDRFSGGGSGTDFTLRISRVEADDVGVYYCMQASQTPYTFGQGTKVEIK | 1.38 | 0.273 | 0.742 | 0.168 | 
ADI-20972 (antibody, V domains shown) VH: QVQLQQWGAGLLRPSETLSLTCAVSGGSFSGHYWSWIRQPPGKGLEWIGGINHSGNTNYSPSLRSRVTMSVDTSRNQFSLMLRSVTAADTAVYFCARNVPNLYGDYPRWFDPWGQGTLVTVSS VL: QSVLTQPASVSGSPGQSITISCTGTSSDVGGFNYVSWYQHHPGKAPKLMIYDVNNRPSGASNRFSGSKSGNTASLTISGLQAEDEADYYCSSYRSSDTLYVFGTGTKVTVL | 0.888 | 3.48 | 6.06 | 0.401 | 
ADI-20963 (antibody, V domains shown) VH: EVQLVESGGGLAKPGGSLRLSCAASGFTFSHYNMNWVRQAPGKGLEWVSSISSTGFHIYYADSVKGRFVISRDNAENSLHLQMNSLRADDTGLYYCVRAEYYYGSGSAGHYFDSWGQGTLVTVSS VL: SYVLTQPPSVSVAPGHTAKITCGGSIIGTKSVHWYQQKPGQAPVLVVYDDSDRPSGIPERLSGSRSGNTATLTITRVEAGDEADYYCQVWDSSSEHAGVFGGGTKLTVL | 0.791 | 0.614 | 3.14 | 0.0909 | 
ADI-20975 (antibody, V domains shown) VH: QVQLVESGTHVKKPGASVKVSCEASDDTFNNKGIVWVRQAPGQGLEWMGWIRPNNGNTKYAQKFQGRVTMTTDASTNTAYMELRSLRSGDTAVYYCAREQFKWNDFYFDYWGQGILVTVSS VL: SYELMQPPSVSVAPGQTATITCGGSNIGSETVHWYQQKPGQAPVLVVHDDTDRPSGIPERFSGSNSGNTATLTISGVEAGDEADFYCQVRDSRTDDVVFGGGTKLTVL | 0.092 | 0.129 | 0.0958 | 0.146 | 
ADI-14594 (antibody, V domains shown) VH: QVQLVQSGAEVKKPGASVKLSCKASGYTFTTYTINWVRQAPGQGLEWMGWISGYNGNTDYAQKLQGRFTMTTDTSTNTAYMELRSLTSDDTAVYYCAKGGGGSESYFDYWGQGTLVTVSS VL: SYELTQPPSVSVAPGKTARISCGGNNIGSKSVHWYQQKPGQAPVLVIYYDRDRPSGIPERFSGSNSGNTATLTISRVEAGDEADYYCQLWDRSSDHPYVFGTGTKVTVL |  | 0.214 | 18.2 | 0.257 | no binding
ADI-20981 (antibody, V domains shown) VH: QVQLQESGPRLVKPSETLSLTCTVSGDSISSRNYFWAWIRQPPGKGLEWIGTIYYSGNTYSNPSLKSRVTISVDTSKKQFSLNLSSVTAADTAVYYCARGAYGGDAFDIWGQGTVVTVSS VL: DIRVTQSPSSVSASVGDRVTITCRASQGIGTWLAWYQQKPGKAPHLLIYAASRLQSGVPSRFSGSGSGTDFTLSISSLHPEDFATYYCQQAYAFPRTFGQGTKVEIK | 2.34 | 0.295 | 2.14 | 0.233 | 
ADI-20967 (antibody, V domains shown, also called Ab 220) VH: EVQLLESGGGVVQPGRSVRLSCAASGFSFSSYALHWVRQAPGKGLEWVGVIWYEESNKYYADPVKGRFTISRDNSKNTLYLQMNSLRDEDTAVYYCARKGVATAGLDYWGQGTLVTVSS VL: not shown | 2.23 | 3.45 | 4.08 | 0.257 | 
ADI-14595 (antibody, V domains shown) VH: EVQLLESGGGLVQPGGSLRLSCAASGFTFSIYSMNWVRQAPGKGLEWISYISRSGSTIFYADSVKGRFTISRDDAKNSLFLQMTSLRDADTAVYYCARVDCSNNKCYDYWGQGTLVTVSS VL: DIQLTQSPATLSLSPGERATLSCRASQSISSFLAWYQQKPGQAPRLLIYDASKRATGTPARFSGGGSGRDFTLTISSLEPEDFAVYYCQQRSSWPLYTFGQGTKVEIK | 2.19 | 14.4 | 16 | 1.3 | 
ADI-20960 (antibody, V domains shown) VH: QVQLQQWGAGVLKPSETLSLTCAVNGRSLSGHYWSWIRQTPGKGLEWIGEINNSGGTHYSPSLKSRVIISGDTAKNQLSLKLSSVTAADTAVYYCAKGSAEWYFDLWGRGTLVTVSS VL: DIRVTQSPSTLSASVGDRVTITCRASQSVSTWLAWYQQKPGKPPSLLIFKASTLESGVPSRFSGSGSGTEFTLTISSLQPDDFATYYCQQYNTYSPWTFGPGTKVEIK | 0.22 | 0.163 | 0.23 | 0.163 | 
ADI-14592 (antibody, V domains shown) VH: QVQLVQSGAEVKKPGESLKISCKGSGYTFTNYWIGWVRQMPGKGLEWMGIIYPDDSDTRYSPSFQGQVTISVDKSINTAYLQWSSLRASDTAIYYCACSNWPHYFDSWGQGTLVTVSS VL: NFMLTQPHSVSESPGKTVTISCTRSSGNIAGNYVQWYQQRPGSAPTTVIYEDNQRPSGVPDRFSGSIDSSSNSASLTISGLKTEDEAVYYCQSYHPGNWVFGGGTKLTVL | 2.4 | 0.0932 | 0.301 | 0.136 | 
ADI-14593 (antibody, V domains shown) VH: QVQLVQSGAEVKKPGESLKISCKGSGYSFSSYWVAWVRQMPGKGLEWMGIIYPADSDTRYSPSFQGQVTISADKSDSTAYLQWGSLKASDTAMYYCARSLYGSGDYFDYWGQGTLVTVSS VL: NFMLTQPHSVSESPGRTVIISCTRSSGSIATNYVQWYQQRPGSAPTTVIYEDNQRPSGVPDRFSGSIDSSSNSASLTISGLKTEDEADYYCQSYGSGDVVFGGGTKVTVL | 2.33 | 0.108 | 0.358 | 0.161 | 
ADI-14599 (antibody, V domains shown) VH: EVQLVESGGGLVQPGRSLRLSCKTSGFTFGDYAMSWVRQAPGQGLDWVGFIRTKAYGGTTEYAASVKGRFTLSRDDSKSIAYLQMNSLKTEDTAVYYCKSGGQFDYWGRGTLVTVSS VL: NFMLTQPHSVSGSPGKTVTISCTGSSGSIASNYVQWYQQRPGSAPTTVICEDNQRPSGVPDRFSGSIDSSSNSASLTISGLKTEDEADYYCQSYDRSNQEVFGGGTKLTVL | 0.102 | 0.358 | 0.622 | 0.636 | 
